The test has as its target α-Synuclein (α-Syn), wild type (UniProt P37840).

The values that follow come from doi:10.1101/619858.

Regarding “α-Synuclein (α-Syn), wild type (from UniProt P37840 1-140) (natural protein)”, the percent of the protein as fibrils (day 5) worked out at 2% and the percent of the protein as oligomers (day 5) was 8%.
